Measurements published in US20060134087A1, “ITI-D1 Kunitz domain mutants as hNE inhibitors” (Dyax Corp., priority 1988, published 2006).

Target: T1, hNE (Homo sapiens, UniProt P08246)
T1 sequence (P08246 30-267): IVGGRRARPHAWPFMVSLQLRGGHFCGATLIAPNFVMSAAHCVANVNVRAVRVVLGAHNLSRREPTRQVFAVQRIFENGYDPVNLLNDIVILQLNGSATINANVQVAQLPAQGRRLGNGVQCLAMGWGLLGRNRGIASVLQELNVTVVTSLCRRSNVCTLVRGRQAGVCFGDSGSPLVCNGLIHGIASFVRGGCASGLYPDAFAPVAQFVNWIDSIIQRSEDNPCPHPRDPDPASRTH
Test: Resistance to oxidative inactivation by Chloramine-T, residual hNE-inhibition activity
Type: physicochemical
Conditions: 20 minutes at RT
Experimental: At the end of the incubation period, the oxidation reactions were quenched by adding methionine to a final concentration of 4 mM. After a further 10 minute incubation, the quenched reactions were diluted and assayed for residual inhibitor activity in our standard hNE-inhibition assay.
Inhibitors were incubated in the presence of Chloramine-T at the molar ratios indicated for 20 minutes at RT. Oxidation reactions were quenched by adding methionine to a final concentration of 4 mM. Residual hNE-inhibition activity remaining in the quenched reactions is shown as a percentage of the activity observed with no added oxidant.

B1: Secretory Leucocyte Protease Inhibitor (protein)
chain: SGKSFKAGVCPPKKSAQCLRYKKPECQSDWQCPGKKRCCPDTCGIKCLDPVDTPNPTRRKPGKCPVTYGQCLMLNPPNFCEMDGQCKRDLKCCMGMCGKSCVSPVKA
Percent Residual hNE-Inhibitory Activity (Molar Ratio CHL-T:Inhibitor 0): 100% | Percent Residual hNE-Inhibitory Activity (Molar Ratio CHL-T:Inhibitor 0.29): 93% | Percent Residual hNE-Inhibitory Activity (Molar Ratio CHL-T:Inhibitor 1.2): 65% | Percent Residual hNE-Inhibitory Activity (Molar Ratio CHL-T:Inhibitor 2.4): 48% | Percent Residual hNE-Inhibitory Activity (Molar Ratio CHL-T:Inhibitor 5.9): 18% | Percent Residual hNE-Inhibitory Activity (Molar Ratio CHL-T:Inhibitor 12.): 15% | Percent Residual hNE-Inhibitory Activity (Molar Ratio CHL-T:Inhibitor .59): 82% | Percent Residual hNE-Inhibitory Activity (Molar Ratio CHL-T:Inhibitor .88): 73%
